Data as given in PMC9482650, “Quantitative fragmentomics allow affinity mapping of interactomes” (Nature Communications, 2022).
Blank lines part the entries; values can stand above or below the binder they belong to.

Key:
Test in all cases: holdup assay
Parameters in all cases: key: below the threshold = too weak to quantify, mostly under pKd 3.1 to 4
APBA2_2, Q99767 = target: T1, APBA2_2, Q99767
T1 sequence (Q99767 654-744, limits assumed, looked up): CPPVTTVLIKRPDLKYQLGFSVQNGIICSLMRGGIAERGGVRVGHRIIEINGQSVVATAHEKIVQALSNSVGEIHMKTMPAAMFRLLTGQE

ARHGEF12, Q9NZN5-2 = target: ARHGEF12, Q9NZN5-2
CARD11, Q9BXL7 = target: T2, CARD11, Q9BXL7
T2 sequence (Q9BXL7 662-765, limits assumed, looked up): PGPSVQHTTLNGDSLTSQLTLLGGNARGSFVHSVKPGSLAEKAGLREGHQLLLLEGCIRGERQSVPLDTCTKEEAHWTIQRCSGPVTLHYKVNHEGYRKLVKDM

CASK, O14936 = target: CASK, O14936
DFNB31_1, Q9P202 = target: T3, DFNB31_1, Q9P202
T3 sequence (Q9P202 135-233, limits assumed, looked up): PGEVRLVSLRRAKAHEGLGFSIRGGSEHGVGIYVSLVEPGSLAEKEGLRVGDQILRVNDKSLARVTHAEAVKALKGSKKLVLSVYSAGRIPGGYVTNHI

FRMPD2_2, Q68DX3 = target: FRMPD2_2, Q68DX3
GRID2IP_1, A4D2P6 = target: GRID2IP_1, A4D2P6
GRID2IP_2, A4D2P6 = target: GRID2IP_2, A4D2P6
GRIP1_2, Q9Y3R0 = target: T4, GRIP1_2, Q9Y3R0
T4 sequence (Q9Y3R0 145-248, limits assumed, looked up): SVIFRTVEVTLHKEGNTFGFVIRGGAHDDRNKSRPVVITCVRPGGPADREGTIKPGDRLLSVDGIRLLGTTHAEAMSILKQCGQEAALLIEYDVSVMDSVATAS

GRIP1_3, Q9Y3R0 = target: T5, GRIP1_3, Q9Y3R0
T5 sequence (Q9Y3R0 247-346, limits assumed, looked up): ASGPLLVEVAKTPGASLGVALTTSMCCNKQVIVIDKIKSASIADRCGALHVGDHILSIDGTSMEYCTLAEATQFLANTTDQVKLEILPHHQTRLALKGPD

GRIP1_7, Q9Y3R0 = target: T6, GRIP1_7, Q9Y3R0
T6 sequence (Q9Y3R0 999-1096, limits assumed, looked up): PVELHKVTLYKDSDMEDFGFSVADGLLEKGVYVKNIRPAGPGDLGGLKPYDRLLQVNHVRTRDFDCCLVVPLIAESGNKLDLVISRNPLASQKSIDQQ

GRIP2_4, Q9C0E4 = target: GRIP2_4, Q9C0E4
IL16_1, Q14005 = target: IL16_1, Q14005
Inadl_6, Q8NI35 = target: Inadl_6, Q8NI35
Inadl_9, Q8NI35 = target: Inadl_9, Q8NI35
LIMK2, P53671 = target: LIMK2, P53671
LNX1_2, Q8TBB1 = target: LNX1_2, Q8TBB1
LNX2_3, Q8N448 = target: T7, LNX2_3, Q8N448
T7 sequence (Q8N448 463-564, limits assumed, looked up): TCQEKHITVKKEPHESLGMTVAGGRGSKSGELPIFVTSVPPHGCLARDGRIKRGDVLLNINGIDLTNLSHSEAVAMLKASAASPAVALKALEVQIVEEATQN

MAGI1_1, Q96QZ7 = target: MAGI1_1, Q96QZ7
MAGI2_2, Q86UL8 = target: MAGI2_2, Q86UL8
MAGI2_5, Q86UL8 = target: MAGI2_5, Q86UL8
MPDZ_12, O75970 = target: T8, MPDZ_12, O75970
T8 sequence (O75970 1857-1958, limits assumed, looked up): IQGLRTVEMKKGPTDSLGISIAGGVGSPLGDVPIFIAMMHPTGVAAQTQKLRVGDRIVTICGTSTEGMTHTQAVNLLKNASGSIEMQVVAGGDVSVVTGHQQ

NHERF3_3, Q5T2W1 = target: T9, NHERF3_3, Q5T2W1
T9 sequence (Q5T2W1 238-333, limits assumed, looked up): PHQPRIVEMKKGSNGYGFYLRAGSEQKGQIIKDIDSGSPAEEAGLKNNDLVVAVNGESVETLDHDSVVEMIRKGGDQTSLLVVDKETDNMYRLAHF

NHERF4_4, Q86UT5 = target: NHERF4_4, Q86UT5
PDLIM1, O00151 = target: PDLIM1, O00151
RADIL, Q96JH8 = target: T10, RADIL, Q96JH8
T10 sequence (Q96JH8 971-1071, limits assumed, looked up): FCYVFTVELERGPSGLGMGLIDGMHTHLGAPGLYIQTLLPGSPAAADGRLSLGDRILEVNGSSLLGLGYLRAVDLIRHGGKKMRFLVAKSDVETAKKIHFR

SIPA1L2, Q9P2F8 = target: T11, SIPA1L2, Q9P2F8
T11 sequence (Q9P2F8 945-1036, limits assumed, looked up): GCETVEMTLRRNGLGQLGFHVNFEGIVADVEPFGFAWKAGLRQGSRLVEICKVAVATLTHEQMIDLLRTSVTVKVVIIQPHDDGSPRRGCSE

[1] = plain residues with an end cap or a label only (N-terminal biotin on a linker: gsgsgs; C-terminal amide)
[2] = plain residues with an end cap or a label only (N-terminal biotin on a linker: ttds)

Inadl_9, Q8NI35, sequence (Q8NI35 1530-1615): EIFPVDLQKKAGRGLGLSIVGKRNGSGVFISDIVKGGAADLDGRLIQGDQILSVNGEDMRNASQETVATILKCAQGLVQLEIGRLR
MAGI2_5, Q86UL8, sequence (Q86UL8 915-1017): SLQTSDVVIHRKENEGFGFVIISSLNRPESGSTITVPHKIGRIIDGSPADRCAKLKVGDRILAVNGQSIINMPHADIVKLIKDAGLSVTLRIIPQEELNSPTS
GRID2IP_2, A4D2P6, sequence (A4D2P6 272-370): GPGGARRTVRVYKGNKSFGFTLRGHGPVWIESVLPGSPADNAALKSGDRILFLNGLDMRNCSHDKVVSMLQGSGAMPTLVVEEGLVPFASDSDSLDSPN
NHERF4_4, Q86UT5, sequence (Q86UT5 464-550): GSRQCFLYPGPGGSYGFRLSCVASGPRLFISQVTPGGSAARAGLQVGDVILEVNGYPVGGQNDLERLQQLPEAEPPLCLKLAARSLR
MAGI2_2, Q86UL8, sequence (Q86UL8 410-522): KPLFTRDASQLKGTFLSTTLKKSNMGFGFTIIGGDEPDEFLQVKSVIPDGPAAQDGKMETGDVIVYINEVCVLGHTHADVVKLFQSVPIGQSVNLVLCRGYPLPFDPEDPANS
IL16_1, Q14005, sequence (Q14005 210-306): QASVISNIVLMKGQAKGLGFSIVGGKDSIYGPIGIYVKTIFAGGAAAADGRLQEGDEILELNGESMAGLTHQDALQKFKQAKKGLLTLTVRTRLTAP
CASK, O14936, sequence (O14936 487-570): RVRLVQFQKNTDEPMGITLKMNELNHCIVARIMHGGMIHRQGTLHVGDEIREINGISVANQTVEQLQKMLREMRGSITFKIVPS
GRIP2_4, Q9C0E4, sequence (Q9C0E4 446-548): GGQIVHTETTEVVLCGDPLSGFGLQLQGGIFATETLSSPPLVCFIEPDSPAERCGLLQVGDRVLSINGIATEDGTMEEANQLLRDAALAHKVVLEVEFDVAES
LIMK2, P53671, sequence (P53671 143-248): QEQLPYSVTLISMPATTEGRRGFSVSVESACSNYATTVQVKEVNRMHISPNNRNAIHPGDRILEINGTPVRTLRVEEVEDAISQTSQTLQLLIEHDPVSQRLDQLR
PDLIM1, O00151, sequence (O00151 1-87): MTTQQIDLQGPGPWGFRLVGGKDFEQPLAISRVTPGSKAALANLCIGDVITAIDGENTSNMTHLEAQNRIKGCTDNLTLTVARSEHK
MAGI1_1, Q96QZ7, sequence (Q96QZ7 1-106): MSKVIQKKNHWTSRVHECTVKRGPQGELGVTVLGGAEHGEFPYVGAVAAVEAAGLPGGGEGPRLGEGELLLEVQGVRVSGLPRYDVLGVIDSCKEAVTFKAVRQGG
Inadl_6, Q8NI35, sequence (Q8NI35 1058-1167): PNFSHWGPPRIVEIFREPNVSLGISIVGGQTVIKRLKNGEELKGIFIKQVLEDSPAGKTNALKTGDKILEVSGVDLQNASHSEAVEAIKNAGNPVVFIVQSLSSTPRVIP
ARHGEF12, Q9NZN5-2, sequence (Q9NZN5 other isoform, or with tags, fused parts or gaps): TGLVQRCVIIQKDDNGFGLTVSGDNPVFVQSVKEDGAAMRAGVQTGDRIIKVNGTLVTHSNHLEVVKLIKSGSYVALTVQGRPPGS
GRID2IP_1, A4D2P6, sequence (A4D2P6 1-87): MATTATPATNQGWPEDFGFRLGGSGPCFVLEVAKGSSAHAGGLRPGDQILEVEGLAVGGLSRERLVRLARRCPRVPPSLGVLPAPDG
FRMPD2_2, Q68DX3, sequence (Q68DX3 944-1038): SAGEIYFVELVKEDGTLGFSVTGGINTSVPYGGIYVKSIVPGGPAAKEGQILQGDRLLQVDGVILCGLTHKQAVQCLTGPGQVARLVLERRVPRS
LNX1_2, Q8TBB1, sequence (Q8TBB1 371-470): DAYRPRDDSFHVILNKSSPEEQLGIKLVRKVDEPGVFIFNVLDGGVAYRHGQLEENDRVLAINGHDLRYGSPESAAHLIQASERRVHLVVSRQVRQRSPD

pKd (APBA2_2, Q99767; [1]): below the threshold | pKd (ARHGEF12, Q9NZN5-2; [1]): below the threshold | pKd (CARD11, Q9BXL7; [1]): below the threshold | pKd (CASK, O14936; [1]): below the threshold | pKd (DFNB31_1, Q9P202; [1]): below the threshold | pKd (FRMPD2_2, Q68DX3; [1]): below the threshold | pKd (GRID2IP_1, A4D2P6; [1]): below the threshold | pKd (GRID2IP_2, A4D2P6; [1]): 3.89 | pKd (GRIP1_2, Q9Y3R0; [1]): below the threshold | pKd (GRIP1_3, Q9Y3R0; [1]): below the threshold | pKd (GRIP1_7, Q9Y3R0; [1]): below the threshold | pKd (GRIP2_4, Q9C0E4; [1]): below the threshold | pKd (IL16_1, Q14005; [1]): below the threshold | pKd (Inadl_6, Q8NI35; [1]): below the threshold | pKd (Inadl_9, Q8NI35; [1]): below the threshold | pKd (LIMK2, P53671; [1]): below the threshold | pKd (LNX1_2, Q8TBB1; [1]): below the threshold | pKd (LNX2_3, Q8N448; [1]): below the threshold | pKd (MAGI1_1, Q96QZ7; [1]): below the threshold | pKd (MAGI2_2, Q86UL8; [1]): below the threshold | pKd (MAGI2_5, Q86UL8; [1]): below the threshold | pKd (MPDZ_12, O75970; [1]): below the threshold | pKd (NHERF3_3, Q5T2W1; [1]): below the threshold | pKd (NHERF4_4, Q86UT5; [1]): 3.55 | pKd (PDLIM1, O00151; [1]): below the threshold | pKd (RADIL, Q96JH8; [1]): below the threshold | pKd (SIPA1L2, Q9P2F8; [1]): below the threshold
Binder: ELIQDTSTSFSTTREW [ARAP3_int, Q8WWN8]

pKd (APBA2_2, Q99767; [2]): below the threshold | pKd (ARHGEF12, Q9NZN5-2; [2]): below the threshold | pKd (CARD11, Q9BXL7; [2]): below the threshold | pKd (CASK, O14936; [2]): below the threshold | pKd (DFNB31_1, Q9P202; [2]): below the threshold | pKd (FRMPD2_2, Q68DX3; [2]): below the threshold | pKd (GRID2IP_1, A4D2P6; [2]): below the threshold | pKd (GRID2IP_2, A4D2P6; [2]): below the threshold | pKd (GRIP1_2, Q9Y3R0; [2]): below the threshold | pKd (GRIP1_3, Q9Y3R0; [2]): below the threshold | pKd (GRIP1_7, Q9Y3R0; [2]): below the threshold | pKd (GRIP2_4, Q9C0E4; [2]): below the threshold | pKd (IL16_1, Q14005; [2]): below the threshold | pKd (Inadl_6, Q8NI35; [2]): below the threshold | pKd (Inadl_9, Q8NI35; [2]): below the threshold | pKd (LIMK2, P53671; [2]): below the threshold | pKd (LNX1_2, Q8TBB1; [2]): below the threshold | pKd (LNX2_3, Q8N448; [2]): below the threshold | pKd (MAGI1_1, Q96QZ7; [2]): below the threshold | pKd (MAGI2_2, Q86UL8; [2]): below the threshold | pKd (MAGI2_5, Q86UL8; [2]): below the threshold | pKd (MPDZ_12, O75970; [2]): below the threshold | pKd (NHERF3_3, Q5T2W1; [2]): below the threshold | pKd (NHERF4_4, Q86UT5; [2]): below the threshold | pKd (PDLIM1, O00151; [2]): below the threshold | pKd (RADIL, Q96JH8; [2]): below the threshold | pKd (SIPA1L2, Q9P2F8; [2]): below the threshold
Binder: TGDTLEKFVEGL [CBP, Q92793]
